# Results: the NTF2 design screens of Basanta et al. (2020)
# Assay: protease stability score; higher = more stable; yeast display proteolysis, trypsin and chymotrypsin;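 further: relative to predicted unfolded state with 0 unfolded-like and 1 meaning tenfold more protease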
row,Sequence,protease stability score
1,SEVEKMARHFVELLSKALLTGNWKTIKELVDPNDLLVVGDKIFHGWDVREEERKRFDHHVMDVKVDHHRDIDGRIEMETTLHLDVNINGVRFHFNHETEMIVRKVNGRWILKSETIR,0.087
2,SEEEKDATDMLEHYIRSLLTGDEHLWRELADPNVKTEIDGVEMIGRESWRILVERLGVDHSDVEDIDFRFYDGRLNVRVKTRHHVNGRTFETELIVIIEKINGRWRVTQIEIRIK,2.5
3,SEEDEQSKKILHIFIEILKTGDFETLEHMLDPNAKLDIDGRDLHGRELFLSMWEEFVRQYKNLRIIFRDYRLYGDYVIIHGQLRINGKTHDLRFHIVNINGRLKHLKIEHE,1.46
4,HHDEELSEHMAHNWLEALLTGDEDMLRELADPHVRYRFNGRQEIGWEHLLRFVNEIRIHELEPRHIQIDLVNGQVHVHIEGTIDGRIGDKDDRRRTTIVLNIRKINGKWILESISMEVE,1.68
5,TEDDHKFEEAMRLWEHIEKTGDPHTASKMLDPNVRIYINGRELHGRHLFEHLEEHWLLELRLKHVQIQHIEVIDGRLEFDVEVNGQQGDKDIRMRVNVTVHKIDGRWFLKMVSFE,0.705
6,DEEEKYVEDIAREFLHAMRTGDEEWNKELADPHVRMHLHQGDYILNLHGRDLFTRVIRYLVDQWRLEIRIENFDSIGNKIEVHGTIILKQGDKSIKRKSIIHIDVVNGRLKEVHIHLQ,0.152
7,SEEEEFARQMMEHFLKNFITGNEELFKENLDPDVRIIIVVNGREFENVGREHFWHHFRRSFEELGVKHLHLKDIRVINGRLFLFAEIEIGDKRVELHFLVLKVDGKWVIEELHIKFL,2.32
8,SEDEHRAREVVHIFNEAIDTGDFQSLMDMMDPNVRLIFENHHTIGREEALKVINRFDHVRNHHVRWRHVHHVNGRIIDHTEVDIVIHINGQIIRETTERDITIEKVNGRWLIHQIEIR,1.14
9,DEDFDIVKHIFDVYIDAILTGDFRTLERNIDPDAKLHFNGREYHGWEIVVKFMLEIRVHDVQYKTMHIYDGRVELHGRNDGVIDGQKTETDTKIIMVKIDGRWHVRHIRVG,1.33
10,SEDERDARELMEIEIRAKRTGDEDTLERLMDPHMRTDINGKELVGREVLEWERKRVDHIHDFRIHHVTSVNGRLDIDASLRLTVDGVEETMRFRILTRKVNGRWIVEFLIVK,0.985
11,REEEELMKEIARRVIESHYTGDEDWWLELADPNVQVHVGDKRKVGREHALHLLHIFHKHLGVDHLHLRHVHVQGDWIEIEMDLNINGKIREMRVFVTVIDGRLDSINIDIK,1.27
12,THEEEIFRRIAELIIDALTTGDEQLLRDLADPHVRQILIIDGREITVHGREEVFELLKEHIDELRIHRVNIEHMDVVGNKVTLDGRMDGYYGDKRTRLEFRIHIDIVNGKLKELTITMR,2.16
13,SEENEAAKLVIEKLNHSWKTGDWRLSEKLMDPDVRVHINGQDLHGREQARKFLEEIRLHMRDVKVKEIRIVDGRLETHGHVHIELIFDGRVFRIERDVESVVLKFNGKWTLESLEVI,1.21
14,DELRKESEDLVRILIEIFHTGDEDVFKRMADPHVRLIAENRIVVGRDLVSRFFRHLLEKYPNVTDHVDVRRIILVGDWLHIDLRIDIEIGDKRHEHDVKIHVRKIDGRWVITEIHVK,1.85
15,SEHHKLLVEIAHLWIRNVLTGDEDRLKEMADPNVRIHINGVDIHGMEDFVRHVHERLKEIWIRIEIKRMVPYDGRAEVDGTMHVIVNGQKLSRRVHYDIIIVDGVLQEQHVHVE,1.64
16,TEEENMNEENLDLAVHLMHTGDEEHLFDRLDPHARLEYGDKKYHGREIVEEVLLTLIRELGVDHIRVRRVKFVGDKLHIDSEFTVGDKVFRLHLVARKINGRWWLHSMRVQ,1.34
17,DTDAVRRALKFIDAMQDGDPDKARELMDPNARVNIGDKEYHGMTSFVKDLKRLRDEIRVQYNIRDYNAQGEKIHVTVDVVFEHNGRPVDERFNVTIDIQGDKIKQVTAHRTK,1.5
18,SENDELNEKLVRDWIISLHTGDEETLRDLLDPHVKVEVGEKRMHGREEYVTHLLHHARRADHIRIEIHQVHNQGDKVNIDGTLHIDVNGKHQHHRVTIIASKVNGKWLIESINIH,1.03
19,DHEEDLSHEFLERLVSAWRTGDEHTWNRLADPNYKLEINGRHSVGREDSLRVIKDIRDKYKGLTIDDVTIKDVRIFDGVIRAKMVLQLNFNGVNIEEEVDIVIEKVDGRWFLKFEIVK,0.653
20,DEDTKHDEEMFRLVLHLLRTGDEEKLTELADPNVRLEVDIDGRRDTYHGREEMLKWLQELLKRYKNMTIKVHRVSVVNGKAHMDGITKVGDKEFKELRIWVVIDGKIRTIKIEIL,2.27
21,DEDREAMEELVRRTLKASSTGDEELSDQLMDPNTRIEVNGKHLIGREMWIKFLVELRIIFHEVHVHDVRSVGDKVDADVHVIFELRINGKRIDIETRVTFYFRKINGRWLVKSIRFE,1.07
22,DELDRRAKKMLRIWLEERFTGDEETVSKLADPDTRTQIHVGDKDLVSIGMESVSEFLRRMIHHWRIEHVKVKDTKVFDGVAHLHGEIHGNIDGQRVDVRLEVRVVVINGRIHSMSEEFT,1.61
23,SEDEEFSKEATETILRVIHTGDWDMIKDLADPNARIHVGNYNSWGREEVMRVIRELFEVLGIKHLIFTHVEIDVIDGVVHSIIHGYEEVGDKTIETHIDIVSKKIDGRWRLQRIEIHHR,1.29
24,SDEEENLKEWVRLMYESARTGDEDSTSHLIDPNVRIHVNGRELHGRELVLEHLRRIDHVELRIHIREVETYDGRLKVEGELREIMIFNGKRVDLRIDTVFINLKVNGRWVLKEVHII,1.34
25,DEREERNKQISELLWHALLTGNWEMLQHLADPHVRVDINGVDLHGRELLVKHLKKFGVDHSRHHDLEIQGEKLIIRGEVEVNGKRIDVEIRIEVIDGKVKHVEVHEN,1.24
